Experimental data published in the RNAGym collection of RNA variant scans (doi:10.1073/pnas.2313332121).

B1: TPR t1 (parent)
chain: GACCAAUCUGCCCUCAGAGCUCGAGAACAUCUUCGGAUGCAGAGGAGGCAGGCUUCGGUGGCGCGAUAGCGCCAACGUCCUCAACCUCCAAUGCAUCCCACCACAUGAUGAUGCCUGAAGAGCCUUGGUUUUUUG

Variants of: B1
Experiment: polymerase ribozyme fitness, log enrichment relative to wild type (log ratio); higher = more active; in vitro selection for triplet polymerase activity
Method in brief: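 Fitness is a logarithmic measure of how a genotype enriched relative to the wild type, with replicate averages weighted by inverse variance. The logarithm uses base 2, and enrichment came from Illumina sequencing of input and output libraries. Those libraries were PCR-built, transcribed mutants of each subunit of a heterodimeric triplet polymerase ribozyme, passed through one triplicate in vitro selection round that included frozen incubation at −7 °C, gel excision of extended constructs and streptavidin-bead capture. Genotypes were kept only if they had ≥10 input reads and ≥1 read per output.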

U32C A50G A118U U131G and A6G C12A A46U C53A C56A are within 0.2 log units of each other in “polymerase ribozyme fitness (log ratio)” value: -1.27 for the first, -1.28 for the second.

C15A A111U and G17C C20A are within 0.2 log units of each other in “polymerase ribozyme fitness (log ratio)” value: -5.13 for the first, -5.15 for the second.

Going from C13A A66C C123A to A26U G60U, the “polymerase ribozyme fitness (log ratio)” value falls from -2.16 to -3.37.

Going from G42C C49A G93C to G47C C123G U133A, the “polymerase ribozyme fitness (log ratio)” value rises from -3.52 to -0.852.

Going from G60A G107U to A18U C85G G113C, the “polymerase ribozyme fitness (log ratio)” value falls from -4.12 to -5.2.

First: C8G G113C
Second: C20U C40U G61U U96G C115G U134A
The “polymerase ribozyme fitness (log ratio)” value of the first is higher: -1.31 for the first, -3.07 for the second.

Compared with C20A G39A C80U A91C, G45C G113C G135U is higher in “polymerase ribozyme fitness (log ratio)” value: -6.34 for the first, -4.16 for the second.

Compared with C13A G44C C124A, G61U G63U is lower in “polymerase ribozyme fitness (log ratio)” value: 0.459 for the first, -4.98 for the second.

First: U30A U106A C124G
Second: A6U A46C
The “polymerase ribozyme fitness (log ratio)” value of the first is lower: -2.11 for the first, -0.0914 for the second.

Compared with A37G G77A U130G, U7A U38C A41C G44U is lower in “polymerase ribozyme fitness (log ratio)” value: -1.16 for the first, -3.32 for the second.

First: G19A A41U U81A C82A U112A
Second: C40G U125A
The “polymerase ribozyme fitness (log ratio)” value of the first is higher: -0.674 for the first, -1.17 for the second.

First: C8G U96C
Second: A105C G120C
The “polymerase ribozyme fitness (log ratio)” value of the first is higher: 0.587 for the first, -1.78 for the second.

First: G44U U55A A83U
Second: C11A G52U
The “polymerase ribozyme fitness (log ratio)” value of the first is higher: -1.34 for the first, -2.14 for the second.

Compared with G120U G122U, U7C G48U C53U G77A U81A U96C G120C is lower in “polymerase ribozyme fitness (log ratio)” value: 0.765 for the first, -2 for the second.

Going from G35U A84C to G45U A95U, the “polymerase ribozyme fitness (log ratio)” value rises from -5.41 to -1.69.

Compared with G58A G69A C88G A121U, C8A G63A C98A is lower in “polymerase ribozyme fitness (log ratio)” value: -2.86 for the first, -5.9 for the second.

Going from G36A C73U to U14G C40G G69A, the “polymerase ribozyme fitness (log ratio)” value falls from -0.561 to -3.52.

First: G47A C53G C73U C86U
Second: A74C U130A U131A U133A
The “polymerase ribozyme fitness (log ratio)” value of the first is higher: -0.0372 for the first, -2.13 for the second.

Going from C49U C70U U130C to C20U G45U A50C G77A U78C A84U C123A, the “polymerase ribozyme fitness (log ratio)” value falls from -0.66 to -3.79.

Compared with G69U C86A C104U, C34A A37U G48U C64G A68G C94G G120U is lower in “polymerase ribozyme fitness (log ratio)” value: 0.251 for the first, -7.45 for the second.

Compared with G36C G42C G60C U130A, U55G C56A C79G C124U is higher in “polymerase ribozyme fitness (log ratio)” value: -3.88 for the first, -0.518 for the second.

Going from C62G C64U to A16U A83U U112G C115A, the “polymerase ribozyme fitness (log ratio)” value falls from -3.51 to -4.6.

Compared with C28U U112C, C89U A119U is lower in “polymerase ribozyme fitness (log ratio)” value: 0.129 for the first, -2.2 for the second.

Compared with G60U G61U, U9G C31G U87A C114A is lower in “polymerase ribozyme fitness (log ratio)” value: -1.93 for the first, -5.66 for the second.

First: U9G A46U G60U A91C G117A
Second: C11U G69A A84C C123U
The “polymerase ribozyme fitness (log ratio)” value of the first is lower: -0.876 for the first, -0.562 for the second.

Going from U116C G120U to U32C C72A C101U U112A C123G, the “polymerase ribozyme fitness (log ratio)” value falls from 0.377 to -3.08.

C12U U21G C53U A68C C124A and U54G G60A U87A A95G G110C are within 0.2 log units of each other in “polymerase ribozyme fitness (log ratio)” value: -6.61 for the first, -6.6 for the second.

Going from A41U A46U G63U to U54G G69U A121C U126A, the “polymerase ribozyme fitness (log ratio)” value rises from -3.33 to -0.813.

First: A6C C15A U33G C124G
Second: C4G G77A C86U C97U
The “polymerase ribozyme fitness (log ratio)” value of the first is lower: -5.85 for the first, -3.31 for the second.

Going from G61U U131A to G36A U54A U112A, the “polymerase ribozyme fitness (log ratio)” value rises from -0.736 to 1.22.

First: C53U G120A
Second: A6U A24C C28A G47U G65C C102G G107A G120A G127U
The “polymerase ribozyme fitness (log ratio)” value of the first is higher: 0.773 for the first, -6.59 for the second.

First: A6U A29U C101A G120C U133A
Second: G60A C82A U129G
The “polymerase ribozyme fitness (log ratio)” value of the first is lower: -4.06 for the first, -1.13 for the second.

First: C40U C82U A84G G107U
Second: G44C U106G G110A A119G
The “polymerase ribozyme fitness (log ratio)” value of the first is lower: -6.74 for the first, -4.41 for the second.

First: G36C C98G
Second: C101G G120U U129A
The “polymerase ribozyme fitness (log ratio)” value of the first is lower: -6.86 for the first, -3.12 for the second.

Compared with A37G U131G, A26G C104U G110C C115A is lower in “polymerase ribozyme fitness (log ratio)” value: -1.11 for the first, -5.13 for the second.

First: G36C C49A C79U C101G
Second: G44A G60C C114A
The “polymerase ribozyme fitness (log ratio)” value of the first is higher: -2.06 for the first, -2.55 for the second.

Going from C15A U132C to A27U U54G U116A C124A G127A, the “polymerase ribozyme fitness (log ratio)” value falls from -1.46 to -3.59.

Compared with A18U C40U C72U U78G C123G G135C, A43U C72A is higher in “polymerase ribozyme fitness (log ratio)” value: -1.48 for the first, -1.26 for the second.

Compared with G120A G127A, C102U G110C is lower in “polymerase ribozyme fitness (log ratio)” value: -0.68 for the first, -7.27 for the second.

Compared with C20U C49G G52C C72A G93U G117U A119G G128U, U7G A18G U38G A50C C53U G113U is higher in “polymerase ribozyme fitness (log ratio)” value: -4.52 for the first, -2.37 for the second.

First: U7C G17U G35C U96A C97U U112A
Second: G47U G77U U106G
The “polymerase ribozyme fitness (log ratio)” value of the first is lower: -6.44 for the first, -3.7 for the second.

In the case of A43G C97U, the “polymerase ribozyme fitness (log ratio)” value is reported as -1.61.
